# Reference: patent US20210317480
# Legend:
# [1] = system: T1, G8PEX from Pseudomonas phage Pf1
# T1 sequence: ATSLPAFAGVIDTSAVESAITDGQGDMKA
# [2] = system: T2, G8PEX from bacteriophage I2-2
# T2 sequence: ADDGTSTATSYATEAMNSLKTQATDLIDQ
# [3] = system: T3, G8PEX from bacteriophage f1
# T3 sequence: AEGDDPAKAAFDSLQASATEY
# [4] = system: T4, G8PEX ortholog peptide from L. monocytogenes (strain M7) bacteriophage M7
# T4 sequence: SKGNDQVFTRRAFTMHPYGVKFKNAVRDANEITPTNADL
# [5] = system: T5, G8PEX, extracellular region of the major coat protein G8P from bacteriophage M13
# T5 sequence: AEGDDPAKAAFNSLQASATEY
substance,measurement,setting,value
Streptococcus pyogenes Cas9 nuclease (SpCas9),in vitro cleavage activity of SpCas9,[1],could efficiently inhibit the cleavage activity of SpCas9 in vitro
same,in vitro cleavage activity of SpCas9,[2],could efficiently inhibit the cleavage activity of SpCas9 in vitro
same,in vitro cleavage activity of SpCas9,[3],could efficiently inhibit the cleavage activity of SpCas9 in vitro
same,DNA cleavage activity of SpCas9,[4],efficiently prohibited SpCas9 to bind to sgRNA (FIG. 7d) or cleave DNA substrate (FIG. 7e)
same,in vitro DNA cleavage by pre-assembled Cas9 RNP,[5],the activity of pre-assembled Cas9 RNP was not affected by G8PEX
same,in vitro cleavage activity of SpCas9,[5],could efficiently inhibit the cleavage activity of SpCas9 in vitro
